Assay results: US20190284268A1 (ABCENTRA, published 2019)

How the values were obtained:
[1] = target: Fas (human) (UniProt P25445); assay: cell-based or functional assay
[2] = target: oxidized LDL (oxLDL) (UniProt P04114 28-4563, oxidized LDL particle; kind of oxidation not stated for this assay); assay: cell-based or functional assay
oxidized LDL (oxLDL), sequence (P04114 28-4563 limits assumed): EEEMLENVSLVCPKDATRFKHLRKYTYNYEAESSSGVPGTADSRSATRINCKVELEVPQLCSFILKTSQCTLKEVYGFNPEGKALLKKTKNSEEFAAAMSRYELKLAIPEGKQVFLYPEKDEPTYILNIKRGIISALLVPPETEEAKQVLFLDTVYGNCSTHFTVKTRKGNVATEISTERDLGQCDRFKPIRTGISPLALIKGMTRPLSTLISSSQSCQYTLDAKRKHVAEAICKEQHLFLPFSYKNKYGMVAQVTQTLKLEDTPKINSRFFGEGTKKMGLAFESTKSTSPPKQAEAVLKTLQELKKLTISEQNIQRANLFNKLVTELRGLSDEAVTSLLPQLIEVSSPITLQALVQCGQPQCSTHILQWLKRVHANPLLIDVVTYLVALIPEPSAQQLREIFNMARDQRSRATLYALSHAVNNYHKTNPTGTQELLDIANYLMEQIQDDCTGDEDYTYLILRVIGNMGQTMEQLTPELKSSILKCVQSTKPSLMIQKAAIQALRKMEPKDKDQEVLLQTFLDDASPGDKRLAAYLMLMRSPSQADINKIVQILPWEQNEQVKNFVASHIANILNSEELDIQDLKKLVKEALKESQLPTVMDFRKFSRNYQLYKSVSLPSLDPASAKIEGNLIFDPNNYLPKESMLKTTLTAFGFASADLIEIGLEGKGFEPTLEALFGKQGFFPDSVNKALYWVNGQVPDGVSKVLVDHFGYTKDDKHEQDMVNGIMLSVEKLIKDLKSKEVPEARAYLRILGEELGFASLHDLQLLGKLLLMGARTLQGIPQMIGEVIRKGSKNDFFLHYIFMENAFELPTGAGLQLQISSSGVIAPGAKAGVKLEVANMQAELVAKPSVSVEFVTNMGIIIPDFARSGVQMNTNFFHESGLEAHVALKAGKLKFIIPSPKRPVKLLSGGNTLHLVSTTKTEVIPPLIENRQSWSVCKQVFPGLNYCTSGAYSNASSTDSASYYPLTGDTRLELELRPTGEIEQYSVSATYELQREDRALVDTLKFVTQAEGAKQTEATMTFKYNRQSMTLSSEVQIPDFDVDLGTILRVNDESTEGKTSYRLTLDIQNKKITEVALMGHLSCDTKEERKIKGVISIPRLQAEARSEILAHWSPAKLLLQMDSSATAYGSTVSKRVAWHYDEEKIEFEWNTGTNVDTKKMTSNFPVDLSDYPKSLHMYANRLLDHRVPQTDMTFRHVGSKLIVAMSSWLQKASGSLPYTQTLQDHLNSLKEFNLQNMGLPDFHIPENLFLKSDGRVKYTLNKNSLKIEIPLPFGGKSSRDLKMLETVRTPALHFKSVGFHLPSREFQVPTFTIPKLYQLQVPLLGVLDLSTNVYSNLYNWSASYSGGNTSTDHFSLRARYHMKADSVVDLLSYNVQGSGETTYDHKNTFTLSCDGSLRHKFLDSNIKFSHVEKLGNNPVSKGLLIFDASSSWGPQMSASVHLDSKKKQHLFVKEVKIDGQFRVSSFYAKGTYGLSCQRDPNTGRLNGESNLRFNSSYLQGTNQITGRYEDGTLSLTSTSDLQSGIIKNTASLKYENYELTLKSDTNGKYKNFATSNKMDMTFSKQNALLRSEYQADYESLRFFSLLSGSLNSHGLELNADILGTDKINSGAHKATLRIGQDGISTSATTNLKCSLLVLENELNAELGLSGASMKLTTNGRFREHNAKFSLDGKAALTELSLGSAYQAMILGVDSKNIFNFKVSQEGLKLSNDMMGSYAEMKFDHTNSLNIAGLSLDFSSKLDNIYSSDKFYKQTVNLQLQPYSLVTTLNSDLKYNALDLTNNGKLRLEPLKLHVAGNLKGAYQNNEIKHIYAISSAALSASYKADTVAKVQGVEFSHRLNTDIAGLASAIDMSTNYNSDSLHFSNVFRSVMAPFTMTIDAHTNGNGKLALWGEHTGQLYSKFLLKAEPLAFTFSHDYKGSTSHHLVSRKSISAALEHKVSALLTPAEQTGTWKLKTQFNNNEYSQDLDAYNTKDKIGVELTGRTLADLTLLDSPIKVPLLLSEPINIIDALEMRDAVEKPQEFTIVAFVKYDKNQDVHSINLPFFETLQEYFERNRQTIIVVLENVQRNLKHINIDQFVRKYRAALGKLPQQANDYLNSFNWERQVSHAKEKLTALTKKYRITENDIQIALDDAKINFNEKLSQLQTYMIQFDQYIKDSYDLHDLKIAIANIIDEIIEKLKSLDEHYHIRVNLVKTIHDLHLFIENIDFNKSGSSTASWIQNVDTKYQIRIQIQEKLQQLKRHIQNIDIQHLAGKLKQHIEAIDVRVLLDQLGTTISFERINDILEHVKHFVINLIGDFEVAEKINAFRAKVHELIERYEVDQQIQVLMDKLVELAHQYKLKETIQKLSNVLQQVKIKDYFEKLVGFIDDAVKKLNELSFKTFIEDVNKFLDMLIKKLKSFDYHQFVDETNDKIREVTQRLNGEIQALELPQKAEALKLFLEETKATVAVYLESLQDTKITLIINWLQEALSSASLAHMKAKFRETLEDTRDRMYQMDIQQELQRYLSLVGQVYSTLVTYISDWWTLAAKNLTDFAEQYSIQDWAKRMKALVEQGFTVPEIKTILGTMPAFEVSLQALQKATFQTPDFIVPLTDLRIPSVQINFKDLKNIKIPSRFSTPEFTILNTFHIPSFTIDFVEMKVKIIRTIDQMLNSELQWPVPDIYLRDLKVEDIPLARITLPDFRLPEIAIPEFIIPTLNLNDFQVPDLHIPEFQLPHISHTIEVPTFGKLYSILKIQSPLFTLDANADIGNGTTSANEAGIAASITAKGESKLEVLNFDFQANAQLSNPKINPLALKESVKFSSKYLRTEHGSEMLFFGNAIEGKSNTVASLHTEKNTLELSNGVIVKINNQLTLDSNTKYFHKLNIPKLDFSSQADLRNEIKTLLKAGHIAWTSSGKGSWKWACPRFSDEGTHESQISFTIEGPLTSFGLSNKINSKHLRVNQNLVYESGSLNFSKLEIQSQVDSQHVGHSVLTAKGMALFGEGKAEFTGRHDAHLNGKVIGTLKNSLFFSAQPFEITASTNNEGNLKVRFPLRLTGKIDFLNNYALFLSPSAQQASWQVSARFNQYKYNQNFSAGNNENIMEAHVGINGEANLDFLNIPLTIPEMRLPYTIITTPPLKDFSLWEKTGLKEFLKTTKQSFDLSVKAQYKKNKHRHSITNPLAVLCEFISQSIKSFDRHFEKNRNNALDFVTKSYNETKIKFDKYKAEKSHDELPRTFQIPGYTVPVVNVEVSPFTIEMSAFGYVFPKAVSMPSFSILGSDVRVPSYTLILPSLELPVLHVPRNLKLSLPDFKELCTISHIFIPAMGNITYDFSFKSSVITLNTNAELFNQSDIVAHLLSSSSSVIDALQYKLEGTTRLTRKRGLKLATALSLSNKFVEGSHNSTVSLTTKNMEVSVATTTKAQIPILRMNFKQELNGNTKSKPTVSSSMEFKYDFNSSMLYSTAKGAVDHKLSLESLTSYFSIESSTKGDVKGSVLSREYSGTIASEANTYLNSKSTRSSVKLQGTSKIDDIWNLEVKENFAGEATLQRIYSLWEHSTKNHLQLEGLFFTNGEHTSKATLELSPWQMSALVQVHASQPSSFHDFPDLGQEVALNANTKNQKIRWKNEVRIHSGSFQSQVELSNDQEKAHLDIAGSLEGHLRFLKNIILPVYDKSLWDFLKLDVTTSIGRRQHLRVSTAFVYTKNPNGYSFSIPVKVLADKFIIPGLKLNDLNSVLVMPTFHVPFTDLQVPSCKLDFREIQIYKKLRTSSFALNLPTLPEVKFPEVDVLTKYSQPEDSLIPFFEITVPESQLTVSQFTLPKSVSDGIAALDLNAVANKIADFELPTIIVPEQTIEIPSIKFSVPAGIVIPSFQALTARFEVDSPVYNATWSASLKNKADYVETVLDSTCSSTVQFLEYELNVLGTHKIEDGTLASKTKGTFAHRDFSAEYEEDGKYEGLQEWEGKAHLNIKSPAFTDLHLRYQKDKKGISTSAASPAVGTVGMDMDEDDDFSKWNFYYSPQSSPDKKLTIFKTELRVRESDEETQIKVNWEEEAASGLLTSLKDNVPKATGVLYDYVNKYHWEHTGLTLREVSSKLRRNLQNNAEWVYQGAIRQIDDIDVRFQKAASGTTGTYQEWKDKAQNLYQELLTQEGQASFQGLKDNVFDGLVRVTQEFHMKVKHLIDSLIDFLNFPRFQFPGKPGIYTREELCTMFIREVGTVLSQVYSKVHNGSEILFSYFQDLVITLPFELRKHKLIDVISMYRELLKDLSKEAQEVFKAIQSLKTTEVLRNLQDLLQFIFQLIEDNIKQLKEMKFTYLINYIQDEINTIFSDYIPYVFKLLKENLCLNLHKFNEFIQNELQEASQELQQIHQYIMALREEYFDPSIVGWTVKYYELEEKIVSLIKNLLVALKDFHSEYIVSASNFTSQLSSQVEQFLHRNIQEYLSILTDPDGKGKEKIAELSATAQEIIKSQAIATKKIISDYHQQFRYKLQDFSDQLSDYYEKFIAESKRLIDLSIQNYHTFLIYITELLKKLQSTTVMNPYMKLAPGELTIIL

Fas (human), sequence (P25445 26-335): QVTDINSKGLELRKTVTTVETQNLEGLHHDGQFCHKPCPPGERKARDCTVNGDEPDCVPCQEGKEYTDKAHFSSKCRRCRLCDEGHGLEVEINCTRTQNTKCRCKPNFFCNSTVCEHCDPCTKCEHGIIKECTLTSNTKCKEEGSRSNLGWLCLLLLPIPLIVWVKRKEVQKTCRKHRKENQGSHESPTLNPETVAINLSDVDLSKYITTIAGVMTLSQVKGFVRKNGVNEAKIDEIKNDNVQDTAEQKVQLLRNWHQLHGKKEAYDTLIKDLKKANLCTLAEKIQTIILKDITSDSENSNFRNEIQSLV

Molecule | release of FAS from PBMCs of SLE patients [1] [%] | IC50 for MCP-1 inhibition [2] [nM]
soluble Fas ligand (from UniProt P48023 134-281) | 73 | –
orticumab (antibody, human IgG1, lambda, V domains shown) VH: EVQLLESGGGLVQPGGSLRLSCAASGFTFSNAWMSWVRQAPGKGLEWVSSISVGGHRTYYADSVKGRSTISRDNSKNTLYLQMNSLRAEDTAVYYCARIRVGPSGGAFDYWGQGTLVTVSS VL: QSVLTQPPSASGTPGQRVTISCSGSNTNIGKNYVSWYQQLPGTAPKLLIYANSNRPSGVPDRFSGSKSGTSASLAISGLRSEDEADYYCASWDASLNGWVFGGGTKLTVLG | – | ~10
